Experimental data reported in patent publication US20250042970A1.

What was measured:
[1] = biological target: human APRIL (Examples 21-23) (human) (UniProt O75888); assay: assay not given (Example 21)
[2] = biological target: human BAFF (Examples 21-23) (human) (UniProt Q9Y275); assay: assay not given (Example 21)

Sequence of human APRIL (Examples 21-23) (human) (O75888 105-250 limits assumed): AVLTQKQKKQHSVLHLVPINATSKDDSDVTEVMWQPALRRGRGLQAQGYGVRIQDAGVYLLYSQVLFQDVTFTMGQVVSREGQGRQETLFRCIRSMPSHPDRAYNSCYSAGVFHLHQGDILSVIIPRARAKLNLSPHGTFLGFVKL

| Kd [1] [nM] | Kd [2] [nM] | Binder |
| --- | --- | --- |
| 0.4 | – | BION-1301 (antibody, INN chains, looked up, V domains shown) VH: QVQLVQSGAEVKKPGASVKVSCKASGYTFTDYTIHWVRQATGQGLEWMGWIYPLRGSINYAQKFQGRVTMTADKSISTVYMELSSLRSEDTAVYFCARHGAYYSNAFDYWGQGTLVTVSS VL: EIVMTQSPATLSVSPGERATLSCRASESVDNDGIRFLHWYQQKPGQAPRLLIYRASTRATGIPARFSGSGSRTEFTLTISSLQSEDFAVYYCQQSNKDPYTFGGGTKVEIK |
| – | 0.0023 | Benlysta (antibody, INN chains, looked up, V domains shown) VH: QVQLQQSGAEVKKPGSSVRVSCKASGGTFNNNAINWVRQAPGQGLEWMGGIIPMFGTAKYSQNFQGRVAITADESTGTASMELSSLRSEDTAVYYCARSRDLLLFPHHALSPWGRGTMVTVSS VL: SSELTQDPAVSVALGQTVRVTCQGDSLRSYYASWYQQKPGQAPVLVIYGKNNRPSGIPDRFSGSSSGNTASLTITGAQAEDEADYYCSSRDSSGNHWVFGGGTELTVLG |
